According to US20240150451A1:

Biological target: tau of P301S transgenic mice (aggregated tau in brainstem; tau seeds from spinal cord) (UniProt P10636)
Assay: cell-based or functional assay

Sequence of tau of P301S transgenic mice (aggregated tau in brainstem; tau seeds from spinal cord) (P10636 other isoform, or with tags, fused parts or gaps P301S P301S): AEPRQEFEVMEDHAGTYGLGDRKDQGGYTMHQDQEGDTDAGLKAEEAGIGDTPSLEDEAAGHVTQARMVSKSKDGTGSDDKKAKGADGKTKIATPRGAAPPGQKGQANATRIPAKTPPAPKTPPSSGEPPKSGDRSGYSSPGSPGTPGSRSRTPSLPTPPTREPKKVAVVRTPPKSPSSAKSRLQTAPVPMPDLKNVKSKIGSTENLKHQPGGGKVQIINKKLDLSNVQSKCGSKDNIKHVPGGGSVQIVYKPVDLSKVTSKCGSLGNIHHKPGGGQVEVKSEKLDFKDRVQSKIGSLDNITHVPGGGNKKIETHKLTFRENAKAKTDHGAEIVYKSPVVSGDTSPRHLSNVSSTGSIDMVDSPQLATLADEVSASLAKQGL

Binder	% inhibition of tau seeding in FRET biosensor cells after immunodepletion, antibody 3 nM [%]	% inhibition of tau seeding in FRET biosensor cells after immunodepletion, antibody 300 nM [%]
hTau60 monoclonal antibody (recombinant, mouse IgG2a/kappa) (antibody, V domains shown) VH: EVQLQQSGPELVKPGTSVKISCKVFGYTFTDYYMNWVKQSHGKSLEWIGDINPDNGETTYNQKFKGKATLTVDKSSSTAYMELRSLTSEDSAVYYCAKGATFVYWGQGTLVTVSA VL: DVVMTQTPLSLPVSLGDQASISCISSQSLVHSTGTTFLHWFLQKPGQSPKLLIYKVSNRFSGVPDRFSGSGSGTDFTLKISRVEAEDLGFYFCSQSTYFPLTFGSGTKLEIKR	22	99.7
PT66 monoclonal antibody (recombinant, mouse IgG2a/kappa) (antibody, V domains shown) VH: QVQLQQPGAELVKPGASVKMSCKASGYTFTSYWITWVKQRPGQGLEWIGDIHPGRGSTKSNEKFKSKATLTVDTSSSTAYMQFSSLTSEDSAVYYCARRWGFDYWGQGTTLTVSS VL: DIVITQDELSNPVTSGESVSISCRSSKSLLYKDGKTYLNWFLQRPGQSPQLLIYLMSTRASGVSDRFSGSGSGTDFTLEISRVKAEDVGVYYCQQLVDYPLTFGAGTKLELKR	46.5	99.7
PT69 monoclonal antibody (recombinant, mouse IgG2a/kappa) (antibody, V domains shown) VH: QVQLQQPGAELVKPGASVKMSCKASGYTFTNYWITWVKQRPGQGLEWIGDIYPGSGRTKSNEKFKNKATLTADTSSSTAYMQLSSLTSEDSAVYYCTRRWGLDYWGQGTTLTVSS VL: DIVITQDELSNPVTSGESVSISCRSNKSLLYKDGKTYLNWFLQRPGQSPQLLIYLMSTRASGVSDRFSGSGSGTDFTLEISRVKAEDVGVYYCQQLVDYPLTFGAGTKLELKR	45.8	99.8
